Legend:
[1] = system: TALE1 synthetic transcription factor (TAL DNA-binding domain targeting ZmWUS promoter + activation domain) (synthetic (Xanthomonas TAL effector)?); experiment: cell_activity; settings: endogenous WUS mRNA by qRT-PCR in maize protoplasts, 24 h
[2] = system: TALE5 synthetic transcription factor (TAL DNA-binding domain targeting ZmBBM promoter + activation domain) (synthetic (Xanthomonas TAL effector)?); experiment: cell_activity; settings: endogenous BBM mRNA by qRT-PCR in maize protoplasts, 24 h; text p298 cites SEQ ID NO: 218 but FIG. 3 legend assigns TALE4-6 to SEQ 270-272

Sequence	activity (fold induction) [1]	activity (fold induction) [2]
TCCCGCTCTCGCTCTCTGC (double strand) [TALE1 target site in ZmWUS promoter]	60	–
TCCTCGAATCATTCTAAGAAGAAAC (double strand) [TALE5 target site in ZmBBM promoter]	–	490
